Experiments:
Experiment in all cases: cell-based or functional assay
[1] = target: mouse CAIX on transduced skrc-59 cells (mouse, UniProt Q8VHB5 32-437)
[2] = target: hamster CAIX on transduced skrc-59 cells (hamster)
[3] = target: monkey CAIX on transduced skrc-59 cells (monkey)

Chain of mouse CAIX on transduced skrc-59 cells (Q8VHB5 32-437): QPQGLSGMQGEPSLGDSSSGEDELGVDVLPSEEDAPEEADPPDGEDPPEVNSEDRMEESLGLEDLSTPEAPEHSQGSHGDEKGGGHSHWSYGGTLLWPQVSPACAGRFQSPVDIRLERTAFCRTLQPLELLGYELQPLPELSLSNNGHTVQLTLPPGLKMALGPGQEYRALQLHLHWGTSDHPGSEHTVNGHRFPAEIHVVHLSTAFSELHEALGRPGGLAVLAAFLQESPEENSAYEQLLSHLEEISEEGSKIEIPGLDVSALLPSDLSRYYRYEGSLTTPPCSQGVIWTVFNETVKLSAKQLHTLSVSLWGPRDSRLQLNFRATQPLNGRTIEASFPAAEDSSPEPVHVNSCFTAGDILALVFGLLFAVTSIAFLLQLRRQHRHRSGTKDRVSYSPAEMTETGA

B1: anti-CAIX (G36) CAR (scFv, V domains shown)
VH: EVQLVQSGGGVVQPGGSLRLSCAASGFPFSSYAMSWVRQAPGKGLEWVSAISANGGTTYYADSVKGRFTISRDNSKNTLYLQMNSLRAEDTAVYYCANNGNYRGAFDIWGQGTMVTVSS
VL: QSVLTQPPSVSGAPGQRVTISCTGSSSNIGAGFDVHWYQQLPGTAPKLLIYGNTNRPSGVPDRFSGSKSGTSASLAITGLQAEDETDYYCQSYDSRLSAWVFGGGTKLTVLG
In the case of B1, the “killing assay of anti-CAIX (G36) CAR T cells” value (shortened to “killing assay of anti-CAIX”) [1] is reported as 50%, the “killing assay of anti-CAIX” value [2] is reported as 50% and the “killing assay of anti-CAIX” value [3] is reported as 100%.

Reference: US12577311 (Dana-Farber, dated 2026)
